The source of these data is patent US20120316071A1 (published 2012).

Assay [1] concerns the target T1, rHuman HGF R/c-MET/Fc Chimera, CF (R&D Systems Cat#358-MT/CF) (human, UniProt P08581 25-932).
T1 construct: Bought recombinant Fc chimera; also called HGF R/Fc; hepatocyte growth factor receptor; Fc part of the bought chimera not given
As to the kind of experiment: MSD Multispot ECL, antigen spotted on plate, Fab in solution; blank spot of the row 373.

Assay [2] has as its target T2, rHuman CD44/Fc Chimera, CF (R&D Systems Cat#3660-CD) (human, UniProt P16070 21-220).
T2 construct: Bought recombinant Fc chimera; Fc part of the bought chimera not given
Described as above.

Assay [3] deals with T3, rHuman EGF R/Fc Chimera, CF (R&D Systems Cat#344-ER) (human, UniProt P00533 25-645).
T3 construct: Bought recombinant Fc chimera; also called epidermal growth factor receptor; Fc part of the bought chimera not given
The assay is described as above.

For assay [4], the target named is T4, rHuman Notch-1/Fc Chimera, CF (R&D Systems Cat#3647-TK) (human, UniProt P46531 19-526).
T4 construct: Bought recombinant Fc chimera; Fc part of the bought chimera not given
The assay is described as above.

Assay [5] deals with T5, rHuman P-Cadherin/Fc Chimera, CF (R&D Systems Cat#861-PC) (human, UniProt P22223 108-654).
T5 construct: Bought recombinant Fc chimera; Fc part of the bought chimera not given
Described as above.

Assay [6] deals with T6, rHuman Erythropoietin R/Fc Chimera, CF (R&D Systems Cat#963-ER) (human, UniProt P19235 25-250).
T6 construct: Bought recombinant Fc chimera; also called EPO R; EPO R/Fc; Fc part of the bought chimera not given
T6 sequence (looked up): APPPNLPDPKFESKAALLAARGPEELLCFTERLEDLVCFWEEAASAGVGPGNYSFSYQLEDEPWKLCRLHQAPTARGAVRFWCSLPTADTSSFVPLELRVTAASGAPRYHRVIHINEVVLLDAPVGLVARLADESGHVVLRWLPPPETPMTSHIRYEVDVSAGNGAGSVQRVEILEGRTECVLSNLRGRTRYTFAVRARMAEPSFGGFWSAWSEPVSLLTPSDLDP
The description is as above.

Assay [7] addresses T7, Recombinant Human DLL4 (R&D Systems Cat#1506-D4/CF) (human, UniProt Q9NR61 27-524).
T7 construct: Bought recombinant protein; also called delta-like protein 4; Delta-like 4
Described as above.

Assay [8] has as its target T8, rHuman EGF R/Fc Chimera, CF (R&D Systems Cat#344-ER) (human, UniProt P00533 25-645).
T8 construct: Bought recombinant protein; Fc part of the bought chimera not given
Nature of the assay: MSD multispot ECL, antigen spotted on plate, Fab in solution; blank spot of this row 184.

Assay [9] has as its target T9, Recombinant Human DLL4 (R&D Systems Cat#1506-D4/CF) (human, UniProt Q9NR61 27-524).
T9 construct: Bought recombinant protein; also called delta-like protein 4; rHuman DLL4
The description is as above.

For assay [10], the target named is T10, rHuman ErbB2/Fc Chimera, CF (R&D Systems Cat#1129-ER) (human, UniProt P04626 23-652).
T10 construct: Bought recombinant protein; Fc part of the bought chimera not given
The assay is described as above.

The target of assay [11] is T11, rHuman P-Cadherin/Fc Chimera, CF (R&D Systems Cat#861-PC) (human, UniProt P22223 108-654).
T11 construct: Bought recombinant protein; Fc part of the bought chimera not given
The description is as above.

In assay [12] the target is T12, rHuman IGF-1 sR (insulin-like growth factor-1 soluble receptor), CF (R&D Systems Cat#391-GR) (human, UniProt P08069 31-932).
T12 construct: Bought recombinant soluble receptor; The column head prints only 'IGF-1'
The assay is described as above.

Assay [13] addresses T13, rHuman HGF R/c-MET/Fc Chimera, CF (R&D Systems Cat#358-MT/CF) (human, UniProt P08581 25-932).
T13 construct: Bought recombinant protein; also called HGF R/Fc; Fc part of the bought chimera not given
The description is as above.

Assay [14] concerns the target T8, rHuman EGF R/Fc Chimera, CF (R&D …). Nature of the assay: MSD multispot ECL, antigen spotted on plate, Fab in solution; blank spot of this row 338.
Assay [15] deals with T9, Recombinant Human DLL4 (R&D Systems …). Described as above.
The target in assay [16] is T10, rHuman ErbB2/Fc Chimera, CF (R&D …). The assay is described as above.
In assay [17] the target is T11, rHuman P-Cadherin/Fc Chimera, CF (R&D …). The description is as above.
Assay [18] deals with T12, rHuman IGF-1 sR (insulin-like growth …). The description is as above.
Assay [19] addresses T13, rHuman HGF R/c-MET/Fc Chimera, CF (R&D …). Described as above.
Assay [20] concerns the target T8, rHuman EGF R/Fc Chimera, CF (R&D …). Nature of the assay: MSD multispot ECL, antigen spotted on plate, Fab in solution; blank spot of this row 254.
For assay [21], the target named is T9, Recombinant Human DLL4 (R&D Systems …). The description is as above.
Assay [22] has as its target T10, rHuman ErbB2/Fc Chimera, CF (R&D …). The description is as above.
Assay [23] concerns the target T11, rHuman P-Cadherin/Fc Chimera, CF (R&D …). Described as above.
The target in assay [24] is T12, rHuman IGF-1 sR (insulin-like growth …). Described as above.
Assay [25] concerns the target T13, rHuman HGF R/c-MET/Fc Chimera, CF (R&D …). Described as above.
The target in assay [26] is T8, rHuman EGF R/Fc Chimera, CF (R&D …). Nature of the assay: MSD multispot ECL, antigen spotted on plate, Fab in solution; blank spot of this row 407.
In assay [27] the target is T9, Recombinant Human DLL4 (R&D Systems …). The assay is described as above.
The target in assay [28] is T10, rHuman ErbB2/Fc Chimera, CF (R&D …). The description is as above.
Assay [29] has as its target T11, rHuman P-Cadherin/Fc Chimera, CF (R&D …). The assay is described as above.
Assay [30] has as its target T12, rHuman IGF-1 sR (insulin-like growth …). The description is as above.
For assay [31], the target named is T13, rHuman HGF R/c-MET/Fc Chimera, CF (R&D …). Described as above.
The target of assay [32] is T14, Recombinant Human DLL4 (delta-like protein 4) (human, UniProt Q9NR61 27-524).
T14 construct: Bought recombinant human DLL4 (R&D Systems Cat#1506-D4/CF); also called rHuman DLL4; Delta-like ligand 4
As to the kind of experiment: SPR, Fab on recombinant human DLL4; two-site binding, this site 10% by the footnote.

Assay [33] deals with T14, Recombinant Human DLL4 (delta-like …). As to the kind of experiment: SPR, Fab on recombinant human DLL4.
For assay [34] the target is unchanged. Nature of the assay: SPR, Fab on recombinant human DLL4; two-site binding, this site 89% by the footnote. In general terms: In SPR one partner is held on a chip, and binding of the other changes the refractive index at the surface.

In general, Kd refers to the equilibrium constant for the complex coming apart. A word on the koff: it is a measure of how fast the partners let go of each other. By kon is commonly meant the second-order rate constant of association.

B1: Fab VH5-51_IGHD5-18*01>3_IGHJ4*01 G100K/G104T G24A & V3-4_IGLJ1*01 (Fab, V domains shown)
VH: EVQLVQSGAEVKKPGESLKISCKASGYSFTSYWIGWVRQMPGKGLEWMGIIYPGDSDTRYSPSFQGQVTISADKSISTAYLQWSSLKASDTAMYYCARRKYSYTYDYFDYWGQGTLVTVSS
VL: QTVVTQEPSFSVSPGGTVTLTCGLSSGSVSTSYYPSWYQQTPGQAPRTLIYSTNTRSSGVPDRFSGSILGNKAALTITGAQADDESDYYCVLYMGSGISYVFGTGTKVTVL
notes: Fab made in E. coli; VH cloned into Plasmid A (CH1, His6 and Flag tags), lambda VL into Plasmid E (lambda CL); also called KT G24A
As to B1, the ECL signal in assay [1] turned out to be 803; in assay [2], 547; in assay [3], 757; in assay [4] it was 493; in assay [5], 212; in [6], 551. In addition, the ECL signal in assay [7] was 45500.

B2: Fab VH1-46_IGHD6-6*01_IGHJ1*01 S102A/S103P/S104F/H111F (H:APFF) & L6_IGKJ1*01 (Fab, V domains shown)
VH: QVQLVQSGAEVKKPGASVKVSCKASGYTFTSYYMHWVRQAPGQGLEWMGIINPSGGSTSYAQKFQGRVTMTRDTSTSTVYMELSSLRSEDTAVYYCAREEYAPFSAEYFQFWGQGTLVTVSS
VL: not shown
notes: Fab expressed in E. coli from plasmid A (CH1, His6 and Flag tags) and plasmid C (kappa CL); also called wildtype (light chain); H:APFF & L:wt
B2: the ECL signal in assay [8] is 409; in assay [9], 132000; in [10] it was 322; in assay [11] it was 240; in assay [12], 173; in assay [13], 263. The ECL signal in assay [14] is 425; in [15], 149000; in assay [16] it was 379; in assay [17] it was 399; in [18] it was 468; in assay [19] it was 332. The ECL signal in assay [20] is 209; in assay [21], 148000; in [22], 351; in assay [23], 138; in assay [24], 306; in assay [25], 176. Further, the ECL signal in assay [26] stood at 329; in assay [27], 126000; in assay [28] it was 292; in [29] it was 277; in assay [30] it was 357; in assay [31], 237.

B3: Fab VH1-46_IGHD6-6*01_IGHJ1*01 S102A/S103P/S104F/H111F (APFF) & L6_IGKJ1*01 S28N/S30D/S31H (NDH) (Fab, V domains shown)
VH: QVQLVQSGAEVKKPGASVKVSCKASGYTFTSYYMHWVRQAPGQGLEWMGIINPSGGSTSYAQKFQGRVTMTRDTSTSTVYMELSSLRSEDTAVYYCAREEYAPFSAEYFQFWGQGTLVTVSS
VL: EIVLTQSPATLSLSPGERATLSCRASQNVDHYLAWYQQKPGQAPRLLIYDASNRATGIPARFSGSGSGTDFTLTISSLEPEDFAVYYCQQRSNWPPWTFGQGTKVEIKR
notes: Fab with CH1 (Plasmid A, His6 and Flag tags) and kappa CL (Plasmid C); Some paragraphs print S28D/S30N/S31H for the same NDH chain; also called H:APFF & L:NDH; APFF-NDH
In the case of B3, the equilibrium dissociation constant (Kd) in assay [32] was 14 nM. For the same molecule, in assay [33], the koff was 0.0689 s⁻¹ and the kon was 444000 M⁻¹ s⁻¹. Further, the dissociation constant (Kd) in assay [34] was 155 nM.
